According to publication PMC6169833:

B1: Nup153-N wild type (1- to 608-amino-acid N-terminal construct of Nup153), C-terminally Flag-tagged [human] / endogenous Nup107 [human (endogenous in HEK293T)] (parent)
chain 1: MASGAGGVGGGGGGKIRTRRCHQGPIKPYQQGRQQHQGILSRVTESVKNIVPGWLQRYFNKNEDVCSCSTDTSEVPRWPENKEDHLVYADEESSNITDGRITPEPAVSNTEEPSTTSTASNYPDVLTRPSLHRSHLNFSMLESPALHCQPSTSSAFPIGSSGFSLVKEIKDSTSQHDDDNISTTSGFSSRASDKDITVSKNTSLPPLWSPEAERSHSLSQHTATSSKKPAFNLSAFGTLSPSLGNSSILKTSQLGDSPFYPGKTTYGGAAAAVRQSKLRNTPYQAPVRRQMKAKQLSAQSYGVTSSTARRILQSLEKMSSPLADAKRIPSIVSSPLNSPLDRSGIDITDFQAKREKVDSQYPPVQRLMTPKPVSIATNRSVYFKPSLTPSGEFRKTNQRIDNKCSTGYEKNMTPGQNREQRESGFSYPNFSLPAANGLSSGVGGGGGKMRRERTRFVASKPLEEEEMEVPVLPKISLPITSSSLPTFNFSSPEITTSSPSPINSSQALTNKVQMTSPSSTGSPMFKFSSPIVKSTEANVLPPSSIGFTFSVPVAKTAELSGSSSTLEPIISSSAHHVTTVNSTNCKKTPPEDCEGPFRPAEILKEGSV
chain 2: MDRSGFGEISSPVIREAEVTRTARKQSAQKRVLLQASQDENFGNTTPRNQVIPRTPSSFRQPFTPTSRSLLRQPDISCILGTGGKSPRLTQSSGFFGNLSMVTNLDDSNWAAAFSSQRSGLFTNTEPHSITEDVTISAVMLREDDPGEAASMSMFSDFLQSFLKHSSSTVFDLVEEYENICGSQVNILSKIVSRATPGLQKFSKTASMLWLLQQEMVTWRLLASLYRDRIQSALEEESVFAVTAVNASEKTVVEALFQRDSLVRQSQLVVDWLESIAKDEIGEFSDNIEFYAKSVYWENTLHTLKQRQLTSYVGSVRPLVTELDPDAPIRQKMPLDDLDREDEVRLLKYLFTLIRAGMTEEAQRLCKRCGQAWRAATLEGWKLYHDPNVNGGTELEPVEGNPYRRIWKISCWRMAEDELFNRYERAIYAALSGNLKQLLPVCDTWEDTVWAYFRVMVDSLVEQEIQTSVATLDETEELPREYLGANWTLEKVFEELQATDKKRVLEENQEHYHIVQKFLILGDIDGLMDEFSKWLSKSRNNLPGHLLRFMTHLILFFRTLGLQTKEEVSIEVLKTYIQLLIREKHTNLIAFYTCHLPQDLAVAQYALFLESVTEFEQRHHCLELAKEADLDVATITKTVVENIRKKDNGEFSHHDLAPALDTGTTEEDRLKIDVIDWLVFDPAQRAEALKQGNAIMRKFLASKKHEAAKEVFVKIPQDSIAEIYNQCEEQGMESPLPAEDDNAIREHLCIRAYLEAHETFNEWFKHMNSVPQKPALIPQPTFTEKVAHEHKEKKYEMDFGIWKGHLDALTADVKEKMYNVLLFVDGGWMVDVREDAKEDHERTHQMVLLRKLCLPMLCFLLHTILHSTGQYQECLQLADMVSSERHKLYLVFSKEELRKLLQKLRESSLMLLDQGLDPLGYEIQL

Variants of: B1
Experiment: Flag immunoprecipitation and Western blotting, quantified with ImageJ
Conditions: HEK293T cells transfected with Nup153-N constructs, harvested 72 h after transfection, parent: 1, read off a plot
In the case of chain 1 S516E S518E S519E S522E, the ratio to parent is reported as 0.57.
